Where two headings read alike, the source gives them in different places. Values belong to the compound of their own block, whether it stands above or below them.
Columns and labels:
dbOphMA [1] = biological target: T1, dbOphMA (Dendrothele bispora, UniProt A0A4S8L4Q5); assay: microscale thermophoresis; type: binding
T1 sequence (A0A4S8L4Q5 1-377): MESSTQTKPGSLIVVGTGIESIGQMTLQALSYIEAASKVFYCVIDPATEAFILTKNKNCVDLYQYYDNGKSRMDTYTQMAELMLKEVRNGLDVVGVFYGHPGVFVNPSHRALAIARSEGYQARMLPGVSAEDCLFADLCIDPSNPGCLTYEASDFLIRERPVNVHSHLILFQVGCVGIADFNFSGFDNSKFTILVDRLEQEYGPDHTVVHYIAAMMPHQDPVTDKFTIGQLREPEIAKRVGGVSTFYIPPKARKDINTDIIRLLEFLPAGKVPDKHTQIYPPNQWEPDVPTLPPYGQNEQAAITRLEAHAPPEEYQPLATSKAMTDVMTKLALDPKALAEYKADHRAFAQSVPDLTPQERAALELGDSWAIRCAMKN

dbOphMA [2] = biological target: T1, dbOphMA; assay: microscale thermophoresis; type: binding; remark: listed apart in the source
[3] = biological target: dbOphM, the catalytic component of dbOphMA (Met1-Asn377), which lacks the precursor peptide (Dendrothele bispora CBS 962.96); assay: crystal structure
[4] = biological target: dbOphMA, methyltransferase-precursor fusion protein from Dendrothele bispora CBS 962.96, full-length fusion (residues Met1-Ala417) (Dendrothele bispora CBS 962.96)
[5] = biological target: dbOphMA, methyltransferase-precursor fusion protein from Dendrothele bispora CBS 962.96, full-length fusion (residues Met1-Ala417) (Dendrothele bispora CBS 962.96); assay: crystal structure

Compound: Nc1ncnc2c1ncn2[C@@H]1O[C@H](CSCC[C@H](N)C(=O)O)[C@@H](O)[C@H]1O [SAH, S-adenosyl homocysteine]
Kd (dbOphMA [1]): 6.88 µM

Compound: C[S@@+](CC[C@H](N)C(=O)O)C[C@H]1O[C@@H](n2cnc3c(N)ncnc32)[C@H](O)[C@@H]1O [SAM, S-adenosyl methionine]
Kd (dbOphMA [2]): 80.7 µM

stoichiometry N [3]: 2
Compound: dbOphM, the catalytic component of dbOphMA (Met1-Asn377), which lacks the precursor peptide (domain or fragment)

stoichiometry N [4]: 2
stoichiometry N [5]: 2
Compound: dbOphMA, methyltransferase-precursor fusion protein from Dendrothele bispora CBS 962.96, full-length fusion (residues Met1-Ala417) (enzyme)
